Data from paper PMC6954424.

Target: mouse IgG (on magnet beads) (mouse)
Assay: pull-down; DNA-barcoded HaloTag protein G (93 nM by qPCR) mixed with mouse IgG magnet beads in PBS-NP40, 4°C, 2 h; three washes; bound barcode quantified by qPCR

fold signal (qPCR of the barcode) over the negative control barcoded GST with IgG: 1000 fold
Substance: DNA-barcoded HaloTag protein G (from UniProt P06654 34-417) (natural protein)
